From patent US9533055 (ARMAGEN TECHNOLOGIES, dated 2017) come the findings set out here.

What is called EC50 is the midpoint of the concentration-response curve. A lower EC50 goes with a more potent agent.

The test addresses T1, HIR extracellular domain (ECD) (human, UniProt P06213 28-956, limits assumed).
T1 construct: extracellular domain; also called HIR ECD; human insulin receptor ECD
The test can be described thus: ELISA, plated HIR ECD, biotinylated goat anti-human IgG detection. The procedure:
The affinity of the fusion protein for the HIR extracellular domain (ECD) was determined with an ELISA using the lectin affinity purified HIR ECD. CHO cells permanently transfected with the HIR ECD were grown in serum free media (SFM), and the HIR ECD was purified with a wheat germ agglutinin affinity column. The HIR ECD (0.2 μg/well) was plated on Immulon 2 high binding 96-well plates, and the binding of the chimeric HIRMAb, the HIRMAb-TNFR fusion protein, or human IgG1 to the HIR ECD was detected with a biotinylated goat anti-human IgG (H+L) antibody (0.3 μg/well), and the avidin biotinylated peroxidase detection system.
(ELISA stands for enzyme-linked immunosorbent assay.)

B1: chimeric HIRMAb (antibody, V domains shown)
VH: QVQLQQSGPELVKPGALVKISCKASGYTFTNYDIHWVKQRPGQGLEWIGWIYPGDGSTKYNEKFKGKATLTADKSSSTAYMHLSSLTSEKSAVYFCAREWAYWGQGTLVTVSA
VL: DIQMTQSPSSLSASLGERVSLTCRASQDIGGNLYWLQQGPDGTIKRLIYATSSLDSGVPKRFSGSRSGSDYSLTISSLESEDFVDYYCLQYSSSPWTFGGGTKMEIKR
notes: Human IgG1/kappa constant regions; also called MAb to HIR
The molecule B1 had a half-maximal effective concentration (EC50) of 0.44 nM.
